{
  "source": "patent US20260209311A1",
  "about": "(published 2026)",
  "binders": {"B1": {"name": "CCL5 ligand (ligand)", "chain": "SPYSSDTTPCCFAYIARPLPRAHIKEYFYTSGKCSNPAVVFVTRKNRQVCANPEKKWVREYINSLEMS"}},
  "target": "GPR75-GFP10-11 modified protein complex (UniProt O95800 1-395; P42212 3-196 = GFP)",
  "test": "SPR; steady state affinity",
  "data": [
    {"binder": "B1", "values": [
      {"measurement": "Kd", "value": 0.388, "unit": "nM"}
    ]}
  ]
}
